Measurements: US7038112B2, “Fatty acid elongases” (Miami University, priority 1997, dated 2006)
Like-named read-outs stand apart in the source and are kept apart here.

How the values were obtained:
EL2 = target: T1, EL2 (Arabidopsis thaliana, UniProt Q9SYZ0); test: 18:0-CoA elongation by EL2 microsomes in standard reaction mix containing cerulenin; format: biochemical
T1 construct: Yeast cultures containing full-length EL1 in λYES and full-length EL2 in pYEUra3 were grown in the presence of galactose or glucose; made in house; microsomes of galactose-induced cells
T1 sequence (Q9SYZ0 36-493): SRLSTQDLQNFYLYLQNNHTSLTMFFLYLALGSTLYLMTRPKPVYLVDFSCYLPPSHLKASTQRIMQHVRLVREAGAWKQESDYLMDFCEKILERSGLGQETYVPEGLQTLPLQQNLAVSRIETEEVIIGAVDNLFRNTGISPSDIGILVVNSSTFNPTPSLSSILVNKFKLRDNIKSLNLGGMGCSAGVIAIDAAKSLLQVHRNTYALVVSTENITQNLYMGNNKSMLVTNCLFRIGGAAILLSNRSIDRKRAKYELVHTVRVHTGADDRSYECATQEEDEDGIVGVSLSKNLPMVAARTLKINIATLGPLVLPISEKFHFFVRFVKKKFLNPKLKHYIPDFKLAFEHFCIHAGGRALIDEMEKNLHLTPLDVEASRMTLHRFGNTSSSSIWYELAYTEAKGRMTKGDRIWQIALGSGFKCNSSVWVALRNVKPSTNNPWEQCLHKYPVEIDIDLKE
Protocol: (§1) Fatty acid elongase activity was measured essentially as described in Hlousek-Radojcic, A. et al., Plant J. 8:803–809 (1995). Briefly, the standard elongation reaction mix contained 80 mM Hepes-KOH, pH 7.2, 20 mM MgCl2, 500 μM NADPH, 1 mM ATP, 100 μM malonyl-CoA, 10 μM CoA-SH and 15 μM radioactive acyl-CoA substrate. The radiolabeled substrate was either [1^−14C]18:1-CoA (50 uCi μmol^−1), [1^−14C]18:0-CoA (55 uCi μmol^−1), or [1^−14C]16:0-CoA (54 uCi μmol^−1). The reaction was initiated by the addition of yeast microsomes (5 μg protein) and the mixture incubated at 30° C. for the indicated period of time. The final reaction volume was 25 μl.
(§2) Methyl esters of the acyl-CoA elongation products were prepared as described in Example 1. Methyl esters were separated on reversed phase silica gel KC18 TLC plates (Whatman, […] thick), quantified by phosphorimaging, and analyzed on by ImageQuant software (Molecular Dynamics, Inc., Sunnyvale, Calif.). The detection limit for each product is about 0.001 nanomoles per min. per mg microsomal protein, depending on the phosphorimage exposure time.
(§3) In a third experiment, microsomes from induced and uninduced cultures containing EL1 or EL2 were incubated in the absence of cofactors involved in the β-ketoacyl condensation reaction. Cultures were induced and microsomes were prepared as described in Example 2. In vitro assays were carried out as described in Example 2, except that either ATP, CoASH or both were omitted from the enzyme reaction mixture.

EL1 = target: T2, EL1 (Arabidopsis thaliana, UniProt Q9MAM3); test: 18:0-CoA elongation by EL1 microsomes in standard reaction mix containing cerulenin; format: biochemical
T2 construct: Yeast cultures containing full-length EL1 in λYES and full-length EL2 in pYEUra3 were grown in the presence of galactose or glucose; made in house; microsomes of galactose-induced cells
Protocol: as §1, §2, §3

[1] = system: Saccharomyces cerevisiae strain AB1380; test: Fatty acid composition of yeast cells transformed with pYEUra3/FAE1; format: cell-based; settings: galactose-induced yeast containing the FAE1 coding sequence
Protocol: Yeast transformed with pYEUra3 having FAE1 operably linked to the GAL1 promoter were grown in the presence of galactose or glucose and were analyzed for the expression of FAE1. As a control, yeast transformed with pYEUra3 containing no insert were also assayed. Analysis of such control preparations yielded fatty acid compositions and fatty acid elongation rates similar to those of yeast transformed with pYEUra3/FAE1. and grown with glucose as the carbon source.
The fatty acid composition of yeast cells grown in the presence of galactose was compared to that of cells grown in the presence of glucose, to determine if VLCFA were found in the galactose-induced cells.
Transformed yeast cells were grown overnight in YPD media at 30° C. with vigorous shaking. One hundred μl of the overnight culture were used to inoculate 40 ml of complete minimal uracil dropout media (CM-Ura) supplemented with either glucose or galactose (2% w/v). Cultures were grown at 30° C. to an OD600 of approximately 1.3 to 1.5. Cells were harvested by centrifugation at 5000×g for 10 min. Total lipids were extracted from the cells with 2 volumes of 4N KOH in 100% methanol for 60 min. at 80° C. […] Methyl esters were analyzed on an HP 5890 series II gas chromatograph equipped with a 5771MSD and 7673 auto injector (Hewlett-Packard, Cincinnati, Ohio.). […]

[2] = format: biochemical, Saccharomyces cerevisiae
Protocol: (§4) Transformed yeast cells were grown in the presence of either glucose or galactose (2% w/v) as described in Example 1. Cells were harvested by centrifugation at 5000×g for 10 min and washed with 10 ml ice cold isolation buffer (IB), which contains 80 mM Hepes-KOH, pH 7.2, 5 mM EGTA, 5 mM EDTA, 10 mM KC1, 320 mM sucrose and 2 mM DTT). Cells were then resuspended in enough IB to fill a 1.7 ml tube containing 700 μl of 0.5 μm glass beads and yeast microsomes were isolated from the cells essentially as described in Tillman, T. and Bell, R., J. Biol. Chem. 261:9144–9149 (1986). The microsomal membrane pellet was recovered by centrifugation at 252,000×g for 60 min. The pellet was rinsed by resuspending in 40 ml fresh IB and again recovered by centrifugation at 252000×g for 60 min. Microsomal pellets were resuspended in a minimal volume of IB, and the protein concentration adjusted to 2.5 μg μl^−1 by addition of IB containing 15% glycerol. Microsomes were frozen on dry ice and stored at −80° C. The protein concentration in microsomes was determined by the Bradford method (Bradford, 1976).
as §1, §2
(§5) Yeast cultures containing full-length EL1 in λYES and full-length EL2 in pYEUra3 were grown in the presence of galactose or glucose as described in Example 2. Microsomes were then prepared from each of the cultures and fatty acid elongation assays were carried out as described in Example 2.
(§6) In the first experiment, microsomes were prepared from galactose-induced cultures of EL1, EL2 and FAE1, and incubated with either [1-^14C] 18:0 acyl-CoA or [1-^14C] 18:1 acyl-CoA as substrate. The amounts of various reaction products synthesized after 30 minutes (min) were determined as described in Example 2.
(§7) In a second experiment, microsomes were prepared from galactose-induced and from glucose-repressed yeast cultures containing EL1 or EL2 coding sequences. The microsomal preparations were incubated with either 18:0 acyl-CoA or 18:1 acyl-CoA as substrate and the fatty acid reaction products determined as described above.

[3] = In vitro fatty acid elongation assay with yeast microsomes, 18:0 acyl-CoA substrate; format: biochemical, Saccharomyces cerevisiae
Protocol: as §4, §1, §2, §5, §6
as §7, with “above. […]” for “above.”

[4] = In vitro fatty acid elongation assay with yeast microsomes, 16:0 acyl-CoA substrate; format: biochemical, Saccharomyces cerevisiae
Protocol: as §4, §1, §2

[5] = EL2, galactose-induced, +Cer 0.01 mM cerulenin, average of two experiments
[6] = EL1, galactose-induced, +Cer 0.01 mM cerulenin, average of two experiments
[7] = 18:1-CoA substrate, galactose-induced, 30 min, first experiment
[8] = microsomes from galactose-induced cells
[9] = 18:0-CoA substrate, galactose-induced, 30 min, first experiment

T2 sequence (Q9MAM3 9-528 limits assumed): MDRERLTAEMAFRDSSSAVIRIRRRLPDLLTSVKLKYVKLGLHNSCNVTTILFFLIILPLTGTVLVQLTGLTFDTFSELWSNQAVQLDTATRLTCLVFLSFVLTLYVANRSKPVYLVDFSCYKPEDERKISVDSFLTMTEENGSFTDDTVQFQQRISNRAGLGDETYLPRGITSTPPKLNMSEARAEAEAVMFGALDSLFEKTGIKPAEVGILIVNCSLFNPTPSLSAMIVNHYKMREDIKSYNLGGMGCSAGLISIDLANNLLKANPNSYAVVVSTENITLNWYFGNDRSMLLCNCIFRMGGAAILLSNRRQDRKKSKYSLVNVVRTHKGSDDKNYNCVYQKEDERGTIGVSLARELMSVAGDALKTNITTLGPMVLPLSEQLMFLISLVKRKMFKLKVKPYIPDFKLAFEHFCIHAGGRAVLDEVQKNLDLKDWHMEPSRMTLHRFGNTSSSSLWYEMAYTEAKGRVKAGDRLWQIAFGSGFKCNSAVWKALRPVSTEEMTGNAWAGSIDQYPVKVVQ

Molecule: C/C=C/C/C=C/CCC(=O)[C@H]1O[C@H]1C(N)=O [cerulenin]
- inhibition of KAS activity of EL2 (EL2; 0.01 mM cerulenin): does not inhibit
- 20:0 product as a percent of total products formed (EL2; [5]): 41.8%
- 22:0 product as a percent of total products formed (EL2; [5]): 16.1%
- 24:0 product as a percent of total products formed (EL2; [5]): 20.4%
- 26:0 product as a percent of total products formed (EL2; [5]): 21.8%
- Total products as a percent of total products formed (EL2; [5]): 100.0%
- inhibition of KAS activity of EL1 (EL1; 0.01 mM cerulenin): does not inhibit
- 20:0 product as a percent of total products formed (EL1; [6]): 46.7%
- 22:0 product as a percent of total products formed (EL1; [6]): 16.2%
- 24:0 product as a percent of total products formed (EL1; [6]): 17.7%
- 26:0 product as a percent of total products formed (EL1; [6]): 19.4%
- Total products as a percent of total products formed (EL1; [6]): 100.0%

B1: FAE1: Known Arabidopsis FAE1 elongase β-ketoacyl synthase expressed in yeast, used as comparator (protein, UniProt Q38860 1-506, looked up)
3-ketoacyl-CoA synthase 18: MTSVNVKLLYRYVLTNFFNLCLFPLTAFLAGKASRLTINDLHNFLSYLQHNLITVTLLFAFTVFGLVLYIVTRPNPVYLVDYSCYLPPPHLKVSVSKVMDIFYQIRKADTSSRNVACDDPSSLDFLRKIQERSGLGDETYSPEGLIHVPPRKTFAASREETEKVIIGALENLFENTKVNPREIGILVVNSSMFNPTPSLSAMVVNTFKLRSNIKSFNLGGMGCSAGVIAIDLAKDLLHVHKNTYALVVSTENITQGIYAGENRSMMVSNCLFRVGGAAILLSNKSGDRRRSKYKLVHTVRTHTGADDKSFRCVQQEDDESGKIGVCLSKDITNVAGTTLTKNIATLGPLILPLSEKFLFFATFVAKKLLKDKIKHYYVPDFKLAVDHFCIHAGGRAVIDELEKNLGLSPIDVEASRSTLHRFGNTSSSSIWYELAYIEAKGRMKKGNKAWQIALGSGFKCNSAVWVALRNVKASANSPWQHCIDRYPVKIDSDLSKSKTHVQNGRS
- very long chain fatty acids in transformed yeast cells [1]: appearance of both 20:1 and 22:1 acyl-CoA products
- increase in 18:1 CoA elongation, microsomes from induced vs uninduced cells [2]: about 18 fold
- (%) 20:1 acyl-CoA product [2, 7]: 84.6%
- (%) 22:1 acyl-CoA product [2, 7]: 15.4%
- (%) 24:1 acyl-CoA product [2, 7]: 0.0%
- (%) 26:1 acyl-CoA product [2, 7]: 0.0%
- (%) Total acyl-CoA products [2, 7]: 100.0%
- Rate, 20:1 acyl-CoA product [2, 7]: 1.131 Nanomoles/minute/mg of microsomal protein
- Rate, 22:1 acyl-CoA product [2, 7]: 0.206 Nanomoles/minute/mg of microsomal protein
- Rate, 24:1 acyl-CoA product [2, 7]: 0.0 Nanomoles/minute/mg of microsomal protein
- Rate, 26:1 acyl-CoA product [2, 7]: 0.0 Nanomoles/minute/mg of microsomal protein
- Rate, Total acyl-CoA products [2, 7]: 1.337 Nanomoles/minute/mg of microsomal protein
- rate of elongation of oleoyl-CoA relative to rate of elongation of 16:0-CoA [2, 8]: about 2 fold
- rate of elongation of oleoyl-CoA relative to rate of elongation of 18:0-CoA [2, 8]: ~3 fold
- (%) 20:0 acyl-CoA product [3, 9]: 64.3%
- (%) 22:0 acyl-CoA product [3, 9]: 18.6%
- (%) 24:0 acyl-CoA product [3, 9]: 10.7%
- (%) 26:0 acyl-CoA product [3, 9]: 6.3%
- (%) Total acyl-CoA products [3, 9]: 100.0%
- Rate, 20:0 acyl-CoA product [3, 9]: 0.369 Nanomoles/minute/mg of microsomal protein
- Rate, 22:0 acyl-CoA product [3, 9]: 0.113 Nanomoles/minute/mg of microsomal protein
- Rate, 24:0 acyl-CoA product [3, 9]: 0.065 Nanomoles/minute/mg of microsomal protein
- Rate, 26:0 acyl-CoA product [3, 9]: 0.038 Nanomoles/minute/mg of microsomal protein
- Rate, Total acyl-CoA products [3, 9]: 0.585 Nanomoles/minute/mg of microsomal protein
- synthesis of 20:0 CoA from the 18:0 CoA substrate ([3]; microsomes from induced yeast): 5.1 nmol mg protein^−1
- FAE1 elongase KAS activity, difference in 16:0 elongation rates between induced and uninduced microsomes ([4]; induced minus uninduced): 5.7 nmol mg protein^−1
- 16:0-CoA elongation by microsomes from induced cells, higher than uninduced cells ([4]; induced vs uninduced): more than 50%
- total rate of elongation of [14C]16:0-CoA ([4]; microsomes from induced cells, at 30 min): 15.8 nmol mg protein^−1
- synthesis of 20:0 CoA from the 16:0 CoA substrate ([4]; microsomes from induced yeast): 4.2 nmol mg protein^−1
